Assays:
human CD80-Avi-tag = target: T1, human CD80-Avi-tag (human, UniProt P33681 35-242); assay: SPR (Biacore 8K, 25 °C), hCD80 immobilized, 1:1 binding model
T1 construct: also called immobilized human CD80; not shown: Avi-tag
T1 sequence (looked up): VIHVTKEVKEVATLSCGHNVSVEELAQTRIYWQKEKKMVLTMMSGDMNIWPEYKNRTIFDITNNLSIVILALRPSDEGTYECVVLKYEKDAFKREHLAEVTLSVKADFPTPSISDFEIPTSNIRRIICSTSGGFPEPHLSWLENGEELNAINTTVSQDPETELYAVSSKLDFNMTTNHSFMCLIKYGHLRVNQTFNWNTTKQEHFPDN
Protocol: (§1) To evaluate binding of the bispecific binding proteins disclosed herein, surface plasmon resonance (SPR) studies were performed on a Biacore 8k instrument (GE Healthcare) at 25° C. The binding of the protein analytes was tested in buffer: 10 mM HEPES, 150 mM NaCl, 3 mM EDTA, 0.05% TWEEN20, pH7.4 on surfaces consisting of a low density (˜200RU) of human CD40-Avi-tag or human CD80-Avi-tag which had been immobilized on NA-coated CM5 chips using standard protocol. The protein analytes were injected in a titration series at a flowrate of 50 ul/min. The data were analyzed using the Biacore Insight Evaluation software. An 1:1 binding kinetic and affinity models are applied for experimental data analysis. The value for the equilibrium dissociation constant (KD) was calculated as the ratio of the rate constants Kd/Ka.

human CD40-Avi-tag = target: T2, human CD40-Avi-tag (human, UniProt P25942 21-193); assay: SPR (Biacore 8K, 25 °C), hCD40 immobilized, 1:1 binding model
T2 construct: Immobilized on NA-coated CM5 chips at about 200 RU; not shown: Avi-tag
Protocol: as §1

T2 sequence (P25942 21-193 limits assumed): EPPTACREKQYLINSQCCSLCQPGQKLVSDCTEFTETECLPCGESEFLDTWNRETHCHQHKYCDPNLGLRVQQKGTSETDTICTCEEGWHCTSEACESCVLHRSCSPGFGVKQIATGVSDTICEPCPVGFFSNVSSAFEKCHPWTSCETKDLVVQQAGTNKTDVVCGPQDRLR

Kd (human CD80-Avi-tag): 154 nM
koff (human CD80-Avi-tag): 0.12 s⁻¹
kon (human CD80-Avi-tag): 780000 M⁻¹ s⁻¹
Kd (human CD40-Avi-tag): 0.325 nM
koff (human CD40-Avi-tag): 9.84e-05 s⁻¹
kon (human CD40-Avi-tag): 303000 M⁻¹ s⁻¹
B1: α-CD40/CTLA-4 bispecific protein (SEQ ID NO: 2 with SEQ ID NO: 11) (bispecific antibody, human IgG4 S228P, kappa)
heavy: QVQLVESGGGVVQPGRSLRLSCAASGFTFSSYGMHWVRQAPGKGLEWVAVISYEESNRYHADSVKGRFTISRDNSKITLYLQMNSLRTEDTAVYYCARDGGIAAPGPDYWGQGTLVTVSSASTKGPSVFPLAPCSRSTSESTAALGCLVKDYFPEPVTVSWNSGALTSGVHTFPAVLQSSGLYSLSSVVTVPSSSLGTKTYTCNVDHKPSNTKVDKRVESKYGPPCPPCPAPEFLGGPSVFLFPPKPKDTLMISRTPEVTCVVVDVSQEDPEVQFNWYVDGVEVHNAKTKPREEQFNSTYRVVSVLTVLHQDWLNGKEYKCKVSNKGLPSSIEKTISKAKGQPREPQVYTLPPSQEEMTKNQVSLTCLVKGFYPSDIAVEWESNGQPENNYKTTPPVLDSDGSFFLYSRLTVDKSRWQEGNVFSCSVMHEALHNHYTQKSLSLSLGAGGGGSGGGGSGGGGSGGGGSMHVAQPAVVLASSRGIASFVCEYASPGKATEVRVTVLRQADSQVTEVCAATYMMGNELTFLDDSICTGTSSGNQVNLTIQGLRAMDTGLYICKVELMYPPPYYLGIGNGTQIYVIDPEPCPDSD
light: DIVMTQSPLSLTVTPGEPASISCRSSQSLLYSNGYNYLDWYLQKPGQSPQVLISLGSNRASGVPDRFSGSGSGTDFTLKISRVEAEDVGVYYCMQARQTPFTFGPGTKVDIRRTVAAPSVFIFPPSDEQLKSGTASVVCLLNNFYPREAKVQWKVDNALQSGNSQESVTEQDSKDSTYSLSSTLTLSKADYEKHKVYACEVTHQGLSSPVTKSFNRGEC
notes: also called Duotein-B; exemplary α-CD40/CTLA-4 bispecific protein
